Assay results as given in article PMC3047612 (The Journal of General Physiology, 2011).

Biological target: H6 hERG 666–872 Flag (human, UniProt Q12809 666-872)
Assay: pull-down

Sequence of H6 hERG 666–872 Flag (Q12809 666-872): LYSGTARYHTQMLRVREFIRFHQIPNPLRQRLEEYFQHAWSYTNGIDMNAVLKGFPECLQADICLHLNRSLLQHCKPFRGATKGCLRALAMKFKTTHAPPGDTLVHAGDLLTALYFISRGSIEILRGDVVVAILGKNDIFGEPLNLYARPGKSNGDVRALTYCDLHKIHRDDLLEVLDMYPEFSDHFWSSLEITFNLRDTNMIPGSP

B1: GST N1–135 (domain or fragment, human, UniProt Q12809 1-135, looked up)
chain: MPVRRGHVAPQNTFLDTIIRKFEGQSRKFIIANARVENCAVIYCNDGFCELCGYSRAEVMQRPCTCDFLHGPRTQRRAAAQIAQALLGAEERKVEIAFYRKDGSCFLCLVDVVPVKNEDGAVIMFILNFEVVMEK
- binding result: binds
